The record followed here is patent publication US9221867B2, “Method for transporting a compound across the blood-brain barrier” (Angiochem Inc., priority 2003, dated 2015).

For series [1], the system named is bovine brain capillary endothelial cells (BBCECs). The experiment in a line: Transcytosis of 125I-proteins across BBCEC monolayers (in vitro blood-brain barrier model). Conditions: for Transcytosis: across in vitro BBB model; for Ratios Aprotinin/Protein / Ratios (x-fold), 125I-proteins transcytosis across BBCEC monolayers: aprotinin transcytosis divided by that of the named protein; for Ratios (x-fold), 125I-proteins transcytosis across BBCEC monolayers: 250 nM.
Procedure: The model consists of a co-culture of bovine brain capillary endothelial cells and rat glial cells.
The in vitro model of BBB was established by using a co-culture of BBCECs and astrocytes. Prior to cell culture, plate inserts (Millicell-PC 3.0 μM; 30-mm diameter) were coated on the upper side with rat tail collagen. They were then set in six-well microplates containing the astrocytes and BBCECs were plated on the upper side of the filters in 2 mL of co-culture medium. This BBCEC medium was changed three times a week. Under these conditions, differentiated BBCECs formed a confluent monolayer 7 days later. Experiments were performed between 5 and 7 days after confluence was reached. The permeability coefficient for sucrose was measured to verify the endothelial permeability.
Briefly, after removing the meninges, the brain tissue was forced gently through a 82 μm nylon sieve. Astrocytes were plated on six-well microplates at a concentration of 1.2×10^5 cells/mL in 2 mL of optimal culture medium (DMEM) supplemented with 10% heat inactivated fetal bovine serum. The medium was changed twice a week.
Bovine brain capillary endothelial cells (BBCECs) were obtained from Cellial Technologies. The cells were cultured in the presence of DMEM medium supplemented with 10% (v/v) horse serum and 10% heat-inactivated calf serum, 2 mM of glutamine, 50 μg/mL of gentamycin, and 1 ng/mL of basic fibroblast growth factor, added every other day.
One insert covered with BBCECs was set into a six-well microplate with 2 mL of Ringer-Hepes and was pre-incubated for 2 h at 37° C. [^125I]-aprotinin, [^125I]-p97, [^125I]-ceruloplasmin or [^125I]-transferrin (250 nM final concentration) was added to the upper side of the filter covered with cells. At various times, the insert was transferred to another well to avoid a possible reendocytosis of [^125I]-proteins by the abluminal side of the BBCECs. At the end of experiment, [^125I]-proteins were assessed in 500 μL of the lower chamber of well by TCA precipitation.
Aprotinin, p97 and bovine holo-transferrin were iodinated with standard procedures using iodo-beads from Sigma™. Bovine holo-transferrin was diluted in 0.1M phosphate buffer, pH 6.5 (PB). P97 obtained from Synapse Technologies in neutralized citrate at pH 7.0 was dialyzed against this PB. Two iodo-beads were used for each protein. These beads were washed twice with 3 mL of PB on a Whatman™ filter and resuspended in 60 μL of PB. ^125I (1 mCi) from Amersham-Pharmacia biotech was added to the bead suspension for 5 minutes at room temperature. The iodination for each protein was initiated by the addition of 100 μg (80-100 μL).

Series [2] has as its system endothelial cell monolayers (in vitro blood-brain barrier model). The experiment in a line: Permeability coefficient (Pe) of proteins in the in vitro blood-brain barrier model.
Procedure: The permeability coefficient (Pe) was calculated as:
At the end of the experiments, amounts of the radiotracers in the basolateral compartment were measured in a liquid scintillation counter. The permeability coefficient (Pe) for sucrose was calculated as previously described (Dehouck, M. P., Jolliet-Riant, P., Brée, F., Fruchart, J. C., Cecchelli, R., Tillement, J. P., J. Neurochem. 58:1790-1797, 1992) using filters coated or non-coated with EC.
The transport of Angio-pep1 from the apical-to-basolateral side of inserts covered with or without endothelial cell monolayers was measured. The results are expressed as the clearance of Angio-pep1 as a function of time. The slopes correspond to the permeability of the peptide through the filter alone (Psf) and to the total permeability of the endothelial cell monolayers (Pst).
The permeability coefficients for Angio-pep1, aprotinin, leptin and transferrin were determined using the in vitro blood-brain barrier model. The permeability coefficient (Pe) was calculated as described above.

B1: Lactoferrin: comparison protein in transcytosis experiment (protein, UniProt P02788 20-710, looked up)
Lactotransferrin: GRRRSVQWCAVSQPEATKCFQWQRNMRKVRGPPVSCIKRDSPIQCIQAIAENRADAVTLDGGFIYEAGLAPYKLRPVAAEVYGTERQPRTHYYAVAVVKKGGSFQLNELQGLKSCHTGLRRTAGWNVPIGTLRPFLNWTGPPEPIEAAVARFFSASCVPGADKGQFPNLCRLCAGTGENKCAFSSQEPYFSYSGAFKCLRDGAGDVAFIRESTVFEDLSDEAERDEYELLCPDNTRKPVDKFKDCHLARVPSHAVVARSVNGKEDAIWNLLRQAQEKFGKDKSPKFQLFGSPSGQKDLLFKDSAIGFSRVPPRIDSGLYLGSGYFTAIQNLRKSEEEVAARRARVVWCAVGEQELRKCNQWSGLSEGSVTCSSASTTEDCIALVLKGEADAMSLDGGYVYTAGKCGLVPVLAENYKSQQSSDPDPNCVDRPVEGYLAVAVVRRSDTSLTWNSVKGKKSCHTAVDRTAGWNIPMGLLFNQTGSCKFDEYFSQSCAPGSDPRSNLCALCIGDEQGENKCVPNSNERYYGYTGAFRCLAENAGDVAFVKDVTVLQNTDGNNNEAWAKDLKLADFALLCLDGKRKPVTEARSCHLAMAPNHAVVSRMDKVERLKQVLLHQQAKFGRNGSDCPDKFCLFQSETKNLLFNDNTECLARLHGKTTYEKYLGPQYVAGITNLKKCSTSPLLEACEFLRK
On to B1, for which, in series [1], the Transcytosis came to 0.05 pmol/h/cm^2 and the “Ratios Aprotinin/Protein” value stood at 50.

B2: Transferrin: comparison protein, bovine holo-transferrin (protein, UniProt Q29443 20-704, looked up)
Serotransferrin: DPERTVRWCTISTHEANKCASFRENVLRILESGPFVSCVKKTSHMDCIKAISNNEADAVTLDGGLVYEAGLKPNNLKPVVAEFHGTKDNPQTHYYAVAVVKKDTDFKLNELRGKKSCHTGLGRSAGWNIPMAKLYKELPDPQESIQRAAANFFSASCVPCADQSSFPKLCQLCAGKGTDKCACSNHEPYFGYSGAFKCLMEGAGDVAFVKHSTVFDNLPNPEDRKNYELLCGDNTRKSVDDYQECYLAMVPSHAVVARTVGGKEDVIWELLNHAQEHFGKDKPDNFQLFQSPHGKDLLFKDSADGFLKIPSKMDFELYLGYEYVTALQNLRESKPPDSSKDECMVKWCAIGHQERTKCDRWSGFSGGAIECETAENTEECIAKIMKGEADAMSLDGGYLYIAGKCGLVPVLAENYKTEGESCKNTPEKGYLAVAVVKTSDANINWNNLKDKKSCHTAVDRTAGWNIPMGLLYSKINNCKFDEFFSAGCAPGSPRNSSLCALCIGSEKGTGKECVPNSNERYYGYTGAFRCLVEKGDVAFVKDQTVIQNTDGNNNEAWAKNLKKENFEVLCKDGTRKPVTDAENCHLARGPNHAVVSRKDKATCVEKILNKQQDDFGKSVTDCTSNFCLFQSNSKDLLFRDDTKCLASIAKKTYDSYLGDDYVRAMTNLRQCSTSKLLEACTFHKP
modifications: holo (iron-loaded)
With B2, in series [1], the “Ratios (x-fold), 125I-proteins transcytosis across BBCEC monolayers” value (“Ratios (x-fold)” for short) is on record as 11.6 x-fold; the Transcytosis is 0.14 pmol/h/cm^2; the “Ratios Aprotinin/Protein” value was 19. For the same molecule, in series [2] (Pe of Angio-pep1 divided by Pe of the named protein), the “Ratios (permeability coefficients)” value was 210. For the same molecule, the “Permeability coefficient (Pe)” value in series [2] (in vitro blood-brain barrier model) was determined as 0.095 ×10⁻⁶ cm/s.

B3: receptor-associated protein (RAP): LRP antagonist, receptor-associated protein (protein, UniProt P30533 35-357, looked up)
Alpha-2-macroglobulin …: YSREKNQPKPSPKRESGEEFRMEKLNQLWEKAQRLHLPPVRLAELHADLKIQERDELAWKKLKLDGLDEDGEKEARLIRNLNVILAKYGLDGKKDARQVTSNSLSGTQEDGLDDPRLEKLWHKAKTSGKFSGEELDKLWREFLHHKEKVHEYNVLLETLSRTEEIHENVISPSDLSDIKGSVLHSRHTELKEKLRSINQGLDRLRRVSHQGYSTEAEFEEPRVIDLWDLAQSANLTDKELEAFREELKHFEAKIEKHNHYQKQLEIAHEKLRHAESVGDGERVSRSREKHALLEGRTKELGYTVKKHLQDLSGRISRARHNEL
Take B3: the “effect on aprotinin transcytosis” value in series [1] ([125I]-aprotinin 250 nM with or without RAP, 37° C., FIG. 14) was “inhibition”.

B4: ceruloplasmin: comparison protein in transcytosis experiments (protein, UniProt P00450 20-1065, looked up)
Ceruloplasmin: KEKHYYIGIIETTWDYASDHGEKKLISVDTEHSNIYLQNGPDRIGRLYKKALYLQYTDETFRTTIEKPVWLGFLGPIIKAETGDKVYVHLKNLASRPYTFHSHGITYYKEHEGAIYPDNTTDFQRADDKVYPGEQYTYMLLATEEQSPGEGDGNCVTRIYHSHIDAPKDIASGLIGPLIICKKDSLDKEKEKHIDREFVVMFSVVDENFSWYLEDNIKTYCSEPEKVDKDNEDFQESNRMYSVNGYTFGSLPGLSMCAEDRVKWYLFGMGNEVDVHAAFFHGQALTNKNYRIDTINLFPATLFDAYMVAQNPGEWMLSCQNLNHLKAGLQAFFQVQECNKSSSKDNIRGKHVRHYYIAAEEIIWNYAPSGIDIFTKENLTAPGSDSAVFFEQGTTRIGGSYKKLVYREYTDASFTNRKERGPEEEHLGILGPVIWAEVGDTIRVTFHNKGAYPLSIEPIGVRFNKNNEGTYYSPNYNPQSRSVPPSASHVAPTETFTYEWTVPKEVGPTNADPVCLAKMYYSAVEPTKDIFTGLIGPMKICKKGSLHANGRQKDVDKEFYLFPTVFDENESLLLEDNIRMFTTAPDQVDKEDEDFQESNKMHSMNGFMYGNQPGLTMCKGDSVVWYLFSAGNEADVHGIYFSGNTYLWRGERRDTANLFPQTSLTLHMWPDTEGTFNVECLTTDHYTGGMKQKYTVNQCRRQSEDSTFYLGERTYYIAAVEVEWDYSPQREWEKELHHLQEQNVSNAFLDKGEFYIGSKYKKVVYRQYTDSTFRVPVERKAEEEHLGILGPQLHADVGDKVKIIFKNMATRPYSIHAHGVQTESSTVTPTLPGETLTYVWKIPERSGAGTEDSACIPWAYYSTVDQVKDLYSGLIGPLIVCRRPYLKVFNPRRKLEFALLFLVFDENESWYLDDNIKTYSDHPEKVNKDDEEFIESNKMHAINGRMFGNLQGLTMHVGDEVNWYLMGMGNEIDLHTVHFHGHSFQYKHRGVYSSDVFDIFPGTYQTLEMFPRTPGIWLLHCHVTDHIHAGMETTYTVLQNEDTKSG
B4: the “Ratios (x-fold)” value in series [1] was 44.0 x-fold.

B5: Melanotransferrin (p97): comparison protein, p97 obtained from Synapse Technologies (protein, UniProt P08582 20-709, looked up)
Melanotransferrin: GMEVRWCATSDPEQHKCGNMSEAFREAGIQPSLLCVRGTSADHCVQLIAAQEADAITLDGGAIYEAGKEHGLKPVVGEVYDQEVGTSYYAVAVVRRSSHVTIDTLKGVKSCHTGINRTVGWNVPVGYLVESGRLSVMGCDVLKAVSDYFGGSCVPGAGETSYSESLCRLCRGDSSGEGVCDKSPLERYYDYSGAFRCLAEGAGDVAFVKHSTVLENTDGKTLPSWGQALLSQDFELLCRDGSRADVTEWRQCHLARVPAHAVVVRADTDGGLIFRLLNEGQRLFSHEGSSFQMFSSEAYGQKDLLFKDSTSELVPIATQTYEAWLGHEYLHAMKGLLCDPNRLPPYLRWCVLSTPEIQKCGDMAVAFRRQRLKPEIQCVSAKSPQHCMERIQAEQVDAVTLSGEDIYTAGKTYGLVPAAGEHYAPEDSSNSYYVVAVVRRDSSHAFTLDELRGKRSCHAGFGSPAGWDVPVGALIQRGFIRPKDCDVLTAVSEFFNASCVPVNNPKNYPSSLCALCVGDEQGRNKCVGNSQERYYGYRGAFRCLVENAGDVAFVRHTTVFDNTNGHNSEPWAAELRSEDYELLCPNGARAEVSQFAACNLAQIPPHAVMVRPDTNIFTVYGLLDKAQDLFGDDHNKNGFKMFDSSNYHGQDLLFKDATVRAVPVGEKTTYRGWLGLDYVAALEGMSSQQC
Take B5: in series [1], the “Ratios (x-fold)” value was determined as 8.2 x-fold; the Transcytosis was 0.28 pmol/h/cm^2; the “Ratios Aprotinin/Protein” value was 10.
